# Tests used:
# RPA (Rfa1-Rfa2-Rfa3) [1] = biological target: T1, RPA (Rfa1-Rfa2-Rfa3) (Saccharomyces cerevisiae, UniProt P22336;P26754;P26755 1-621;1-273;1-122); assay: EMSA; 150 mM KCl; second RPA at 20 nM, third at 200 nM; EMSA: 20 mM Tris-HCl pH 7.5, 150 (or 15) mM KCl, 1 mM DTT, 100 ug/mL BSA, 5 nM DNA, 30 C 10 min; curtains: 40 mM Tris-HCl pH 7.5, 150 or 15 mM NaCl, 2 mM MgCl2, 1 mM DTT, 0.2 mg/mL BSA; MST: 1x PBS-P+; conditions: protein: recombinant; tags: His tag (MST: His-tagged RPA, RED-tris-NTA dye); copies: 1;1;1; label: 5'-32P
# T1 sequence (P22336 whole entry, chain 1 of 3): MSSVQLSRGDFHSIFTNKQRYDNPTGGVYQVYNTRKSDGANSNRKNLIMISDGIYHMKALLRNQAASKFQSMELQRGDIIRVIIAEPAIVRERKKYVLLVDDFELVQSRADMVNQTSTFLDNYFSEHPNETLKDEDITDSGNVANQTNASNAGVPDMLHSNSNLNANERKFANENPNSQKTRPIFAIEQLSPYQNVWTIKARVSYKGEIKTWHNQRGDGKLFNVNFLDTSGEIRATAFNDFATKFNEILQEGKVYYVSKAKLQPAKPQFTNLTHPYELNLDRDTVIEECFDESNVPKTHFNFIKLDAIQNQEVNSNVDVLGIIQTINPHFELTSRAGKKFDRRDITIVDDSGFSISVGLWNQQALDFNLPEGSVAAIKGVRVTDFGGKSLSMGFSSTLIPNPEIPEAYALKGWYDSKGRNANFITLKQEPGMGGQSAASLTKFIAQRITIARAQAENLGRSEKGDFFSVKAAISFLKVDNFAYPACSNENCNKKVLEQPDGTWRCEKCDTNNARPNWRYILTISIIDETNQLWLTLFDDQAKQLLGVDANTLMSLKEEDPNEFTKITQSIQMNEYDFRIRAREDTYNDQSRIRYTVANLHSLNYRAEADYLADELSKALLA
# T1 sequence (P26754 whole entry, chain 2 of 3): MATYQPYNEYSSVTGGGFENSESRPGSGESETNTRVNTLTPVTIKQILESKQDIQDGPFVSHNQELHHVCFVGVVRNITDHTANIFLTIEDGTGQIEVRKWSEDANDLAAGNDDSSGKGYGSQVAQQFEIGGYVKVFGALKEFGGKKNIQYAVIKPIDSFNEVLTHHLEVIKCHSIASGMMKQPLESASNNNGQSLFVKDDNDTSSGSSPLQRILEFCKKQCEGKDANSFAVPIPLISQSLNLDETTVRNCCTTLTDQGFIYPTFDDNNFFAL
# T1 sequence (P26755 whole entry, chain 3 of 3): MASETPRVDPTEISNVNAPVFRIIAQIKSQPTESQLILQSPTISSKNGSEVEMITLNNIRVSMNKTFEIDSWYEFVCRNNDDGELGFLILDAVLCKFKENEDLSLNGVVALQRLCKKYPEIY
# RPA (Rfa1-Rfa2-Rfa3) [2] = biological target: T1, RPA (Rfa1-Rfa2-Rfa3); assay: EMSA; minimal length for stable first RPA; EMSA: 20 mM Tris-HCl pH 7.5, 150 (or 15) mM KCl, 1 mM DTT, 100 ug/mL BSA, 5 nM DNA, 30 C 10 min; curtains: 40 mM Tris-HCl pH 7.5, 150 or 15 mM NaCl, 2 mM MgCl2, 1 mM DTT, 0.2 mg/mL BSA; MST: 1x PBS-P+; conditions: protein: recombinant; tags: His tag (MST: His-tagged RPA, RED-tris-NTA dye); copies: 1;1;1; label: 5'-32P
# RPA-MeGFP = RPA-MeGFP (Saccharomyces cerevisiae, UniProt P22336;P26754;P26755 1-621;1-273;1-122); assay: MST; similar to RPA; EC50 only in figure; PBS-P+; EMSA: 20 mM Tris-HCl pH 7.5, 150 (or 15) mM KCl, 1 mM DTT, 100 ug/mL BSA, 5 nM DNA, 30 C 10 min; curtains: 40 mM Tris-HCl pH 7.5, 150 or 15 mM NaCl, 2 mM MgCl2, 1 mM DTT, 0.2 mg/mL BSA; MST: 1x PBS-P+; conditions: protein: recombinant; tags: MeGFP (eGFP A206K)-6xHis at Rfa2 C-terminus, LG linker; copies: 1;1;1; label: 5'-32P (EMSA); unlabeled (MST)
# RPA-MeGFP, sequence (P22336 whole entry, chain 1 of 3): as the sequence (P22336 whole entry, chain 1 of 3) above
# RPA-MeGFP, sequence (P26754 whole entry, chain 2 of 3): as the sequence (P26754 whole entry, chain 2 of 3) above
# RPA-MeGFP, sequence (P26755 whole entry, chain 3 of 3): as the sequence (P26755 whole entry, chain 3 of 3) above
# RPA (Rfa1-Rfa2-Rfa3) [3] = biological target: T1, RPA (Rfa1-Rfa2-Rfa3); assay: EMSA; 150 mM KCl; single shifted species; EMSA: 20 mM Tris-HCl pH 7.5, 150 (or 15) mM KCl, 1 mM DTT, 100 ug/mL BSA, 5 nM DNA, 30 C 10 min; curtains: 40 mM Tris-HCl pH 7.5, 150 or 15 mM NaCl, 2 mM MgCl2, 1 mM DTT, 0.2 mg/mL BSA; MST: 1x PBS-P+; conditions: protein: recombinant; tags: His tag (MST: His-tagged RPA, RED-tris-NTA dye); copies: 1;1;1; label: 5'-32P (EMSA); unlabeled (MST)
# RPA (Rfa1-Rfa2-Rfa3) [4] = biological target: T1, RPA (Rfa1-Rfa2-Rfa3); assay: EMSA; 150 mM KCl; second RPA binds at 50-100 nM; EMSA: 20 mM Tris-HCl pH 7.5, 150 (or 15) mM KCl, 1 mM DTT, 100 ug/mL BSA, 5 nM DNA, 30 C 10 min; curtains: 40 mM Tris-HCl pH 7.5, 150 or 15 mM NaCl, 2 mM MgCl2, 1 mM DTT, 0.2 mg/mL BSA; MST: 1x PBS-P+; conditions: protein: recombinant; tags: His tag (MST: His-tagged RPA, RED-tris-NTA dye); copies: 1;1;1; label: 5'-32P
# RPA (Rfa1-Rfa2-Rfa3) [5] = biological target: T1, RPA (Rfa1-Rfa2-Rfa3); assay: EMSA; minimal length for stable third RPA; EMSA: 20 mM Tris-HCl pH 7.5, 150 (or 15) mM KCl, 1 mM DTT, 100 ug/mL BSA, 5 nM DNA, 30 C 10 min; curtains: 40 mM Tris-HCl pH 7.5, 150 or 15 mM NaCl, 2 mM MgCl2, 1 mM DTT, 0.2 mg/mL BSA; MST: 1x PBS-P+; conditions: protein: recombinant; tags: His tag (MST: His-tagged RPA, RED-tris-NTA dye); copies: 1;1;1; label: 5'-32P
# RPA (Rfa1-Rfa2-Rfa3) [6] = biological target: T1, RPA (Rfa1-Rfa2-Rfa3); assay: EMSA; 150 mM KCl; single shifted species, affinity similar to dT30; EMSA: 20 mM Tris-HCl pH 7.5, 150 (or 15) mM KCl, 1 mM DTT, 100 ug/mL BSA, 5 nM DNA, 30 C 10 min; curtains: 40 mM Tris-HCl pH 7.5, 150 or 15 mM NaCl, 2 mM MgCl2, 1 mM DTT, 0.2 mg/mL BSA; MST: 1x PBS-P+; conditions: protein: recombinant; tags: His tag (MST: His-tagged RPA, RED-tris-NTA dye); copies: 1;1;1; label: 5'-32P
# RPA (Rfa1-Rfa2-Rfa3) [7] = biological target: T1, RPA (Rfa1-Rfa2-Rfa3); assay: EMSA; 150 mM KCl; 2-stage binding; EMSA: 20 mM Tris-HCl pH 7.5, 150 (or 15) mM KCl, 1 mM DTT, 100 ug/mL BSA, 5 nM DNA, 30 C 10 min; curtains: 40 mM Tris-HCl pH 7.5, 150 or 15 mM NaCl, 2 mM MgCl2, 1 mM DTT, 0.2 mg/mL BSA; MST: 1x PBS-P+; conditions: protein: recombinant; tags: His tag (MST: His-tagged RPA, RED-tris-NTA dye); copies: 1;1;1; label: 5'-32P
binder,measurement,setting,value
dT(60) (ssDNA) DNA: TTTTTTTTTTTTTTTTTTTTTTTTTTTTTTTTTTTTTTTTTTTTTTTTTTTTTTTTTTTT,binding result,RPA (Rfa1-Rfa2-Rfa3) [1],binds
TTTTTTTTTTTTTTT (ssDNA) [dT(15)],binding result,RPA (Rfa1-Rfa2-Rfa3) [2],binds
TTTTTTTTTTTTTTTTTTTTTTTTTTTTTT (ssDNA) [dT(30)],binding result,RPA-MeGFP,binds
same,binding result,RPA (Rfa1-Rfa2-Rfa3) [3],binds
TTTTTTTTTTTTTTTTTTTTTTTTTTTTTTTTTTTTTTTT (ssDNA) [dT(40)],binding result,RPA (Rfa1-Rfa2-Rfa3) [4],binds
dT(54) (ssDNA) DNA: TTTTTTTTTTTTTTTTTTTTTTTTTTTTTTTTTTTTTTTTTTTTTTTTTTTTTT,binding result,RPA (Rfa1-Rfa2-Rfa3) [5],binds
TTTTTTTTTTTTTTTTTTTT (ssDNA) [dT(20)],binding result,RPA (Rfa1-Rfa2-Rfa3) [6],binds
TTTTTTTTTTTTTTTTTTTTTTTTTTTTTTTTTTTTTTTTTTTTTTTTTT (ssDNA) [dT(50)],binding result,RPA (Rfa1-Rfa2-Rfa3) [7],binds
